Laboratory results published in US11325966.

Key:
Test in all cases: cell-based or functional assay
[1] = target: HIV-1 Env of pseudovirus 1006_11_C3_1601 (HIV-1)
[2] = target: HIV-1 Env of pseudovirus 1012_11_TC21_3257 (HIV-1)
[3] = target: HIV-1 Env of pseudovirus 1054_07_TC4_1499 (HIV-1)
[4] = target: HIV-1 Env of pseudovirus 1056_10_TA11_1826 (HIV-1)
[5] = target: HIV-1 Env of pseudovirus 191821_E6_1 (HIV-1)
[6] = target: HIV-1 Env of pseudovirus 231965.c01 (HIV-1)
[7] = target: HIV-1 Env of pseudovirus 231966.c02 (HIV-1)
[8] = target: HIV-1 Env of pseudovirus 235-47 (HIV-1)
[9] = target: HIV-1 Env of pseudovirus 246F C1G (HIV-1)
[10] = target: HIV-1 Env of pseudovirus 263-8 (HIV-1)
[11] = target: HIV-1 Env of pseudovirus 3103.v3.c10 (HIV-1)
[12] = target: HIV-1 Env of pseudovirus 3301.v1.c24 (HIV-1)
[13] = target: HIV-1 Env of pseudovirus 6041.v3.c23 (HIV-1)
[14] = target: HIV-1 Env of pseudovirus 62357_14_D3_4589 (HIV-1)
[15] = target: HIV-1 Env of pseudovirus 6240_08_TA5_4622 (HIV-1)
[16] = target: HIV-1 Env of pseudovirus 6540.v4.c1 (HIV-1)
[17] = target: HIV-1 Env of pseudovirus AC10.0.29 (HIV-1)
[18] = target: HIV-1 Env of pseudovirus BF1266.431a (HIV-1)
[19] = target: HIV-1 Env of pseudovirus BJOX009000.02.4 (HIV-1)
[20] = target: HIV-1 Env of pseudovirus C4118.c09 (HIV-1)
[21] = target: HIV-1 Env of pseudovirus CAP210.2.00.E8 (HIV-1)
[22] = target: HIV-1 Env of pseudovirus CAP45.2.00.G3 (HIV-1)
[23] = target: HIV-1 Env of pseudovirus CNE20 (HIV-1)
[24] = target: HIV-1 Env of pseudovirus CNE5 (HIV-1)
[25] = target: HIV-1 Env of pseudovirus Ce0393_C3 (HIV-1)
[26] = target: HIV-1 Env of pseudovirus Du172.17 (HIV-1)
[27] = target: HIV-1 Env of pseudovirus Du422.1 (HIV-1)
[28] = target: HIV-1 Env of pseudovirus MS208.A1 (HIV-1)
[29] = target: HIV-1 Env of pseudovirus P0402_c2_11 (HIV-1)
[30] = target: HIV-1 Env of pseudovirus Q461.e2 (HIV-1)
[31] = target: HIV-1 Env of pseudovirus REJO4541.67 (HIV-1)
[32] = target: HIV-1 Env of pseudovirus RHPA4259.7 (HIV-1)
[33] = target: HIV-1 Env of pseudovirus T250-4 (HIV-1)
[34] = target: HIV-1 Env of pseudovirus T251-18 (HIV-1)
[35] = target: HIV-1 Env of pseudovirus THRO4156.18 (HIV-1)
[36] = target: HIV-1 Env of pseudovirus X1254_c3 (HIV-1)
[37] = target: HIV-1 Env of pseudovirus X1632_S2_B10 (HIV-1)
[38] = target: HIV-1 Env of pseudovirus ZM197M.PB7 (HIV-1)
[39] = target: HIV-1 Env of pseudovirus ZM214M.PL15 (HIV-1)
[40] = target: HIV-1 Env of pseudovirus ZM249M.PL1 (HIV-1)

Q: What does the source list for 354BG8 (antibody)?
A: IC50 in TZM-bl assay [1]: 0.002 µg/mL; IC80 in TZM-bl assay [1]: 0.006 µg/mL; IC50 in TZM-bl assay [2]: 0.011 µg/mL; IC80 in TZM-bl assay [2]: 0.047 µg/mL; IC50 in TZM-bl assay [3]: 0.048 µg/mL; IC80 in TZM-bl assay [3]: 0.222 µg/mL; IC50 in TZM-bl assay [4]: 0.038 µg/mL; IC80 in TZM-bl assay [4]: 0.168 µg/mL; IC50 in TZM-bl assay [5]: > 10 µg/mL; IC80 in TZM-bl assay [5]: > 10 µg/mL; IC50 in TZM-bl assay [6]: > 10 µg/mL; IC80 in TZM-bl assay [6]: > 10 µg/mL; IC50 in TZM-bl assay [7]: > 10 µg/mL; IC80 in TZM-bl assay [7]: > 10 µg/mL; IC50 in TZM-bl assay [8]: 0.058 µg/mL; IC80 in TZM-bl assay [8]: 0.224 µg/mL; IC50 in TZM-bl assay [9]: 0.035 µg/mL; IC80 in TZM-bl assay [9]: 0.119 µg/mL; IC50 in TZM-bl assay [10]: 0.416 µg/mL; IC80 in TZM-bl assay [10]: 5.71 µg/mL; IC50 in TZM-bl assay [11]: 0.024 µg/mL; IC80 in TZM-bl assay [11]: 0.061 µg/mL; IC50 in TZM-bl assay [12]: 0.018 µg/mL; IC80 in TZM-bl assay [12]: 0.049 µg/mL; IC50 in TZM-bl assay [13]: > 10 µg/mL; IC80 in TZM-bl assay [13]: > 10 µg/mL; IC50 in TZM-bl assay [14]: > 10 µg/mL; IC80 in TZM-bl assay [14]: > 10 µg/mL; IC50 in TZM-bl assay [15]: 0.038 µg/mL; IC80 in TZM-bl assay [15]: 0.131 µg/mL; IC50 in TZM-bl assay [16]: > 10 µg/mL; IC80 in TZM-bl assay [16]: > 10 µg/mL; IC50 in TZM-bl assay [17]: 0.015 µg/mL; IC80 in TZM-bl assay [17]: 0.043 µg/mL; IC50 in TZM-bl assay [18]: > 10 µg/mL; IC80 in TZM-bl assay [18]: > 10 µg/mL; IC50 in TZM-bl assay [19]: > 10 µg/mL; IC80 in TZM-bl assay [19]: > 10 µg/mL; IC50 in TZM-bl assay [20]: > 10 µg/mL; IC80 in TZM-bl assay [20]: > 10 µg/mL; IC50 in TZM-bl assay [21]: > 10 µg/mL; IC80 in TZM-bl assay [21]: > 10 µg/mL; IC50 in TZM-bl assay [22]: > 10 µg/mL; IC80 in TZM-bl assay [22]: > 10 µg/mL; IC50 in TZM-bl assay [23]: 0.002 µg/mL; IC80 in TZM-bl assay [23]: 0.005 µg/mL; IC50 in TZM-bl assay [24]: > 10 µg/mL; IC80 in TZM-bl assay [24]: > 10 µg/mL; IC50 in TZM-bl assay [25]: > 10 µg/mL; IC80 in TZM-bl assay [25]: > 10 µg/mL; IC50 in TZM-bl assay [26]: 0.049 µg/mL; IC80 in TZM-bl assay [26]: 0.194 µg/mL; IC50 in TZM-bl assay [27]: 0.047 µg/mL; IC80 in TZM-bl assay [27]: 0.113 µg/mL; IC50 in TZM-bl assay [28]: > 10 µg/mL; IC80 in TZM-bl assay [28]: > 10 µg/mL; IC50 in TZM-bl assay [29]: 0.008 µg/mL; IC80 in TZM-bl assay [29]: 0.024 µg/mL; IC50 in TZM-bl assay [30]: > 10 µg/mL; IC80 in TZM-bl assay [30]: > 10 µg/mL; IC50 in TZM-bl assay [31]: > 10 µg/mL; IC80 in TZM-bl assay [31]: > 10 µg/mL; IC50 in TZM-bl assay [32]: 0.023 µg/mL; IC80 in TZM-bl assay [32]: 0.083 µg/mL; IC50 in TZM-bl assay [33]: 0.002 µg/mL; IC80 in TZM-bl assay [33]: 0.005 µg/mL; IC50 in TZM-bl assay [34]: 0.399 µg/mL; IC80 in TZM-bl assay [34]: 2.29 µg/mL; IC50 in TZM-bl assay [35]: > 10 µg/mL; IC80 in TZM-bl assay [35]: > 10 µg/mL; IC50 in TZM-bl assay [36]: 0.063 µg/mL; IC80 in TZM-bl assay [36]: 0.239 µg/mL; IC50 in TZM-bl assay [37]: > 10 µg/mL; IC80 in TZM-bl assay [37]: > 10 µg/mL; IC50 in TZM-bl assay [38]: > 10 µg/mL; IC80 in TZM-bl assay [38]: > 10 µg/mL; IC50 in TZM-bl assay [39]: 0.415 µg/mL; IC80 in TZM-bl assay [39]: 2.97 µg/mL; IC50 in TZM-bl assay [40]: > 10 µg/mL; IC80 in TZM-bl assay [40]: > 10 µg/mL

Q: What does the source list for BG18 IgG (354BG18) (antibody)?
A: IC80 in TZM-bl assay [1]: 0.004 µg/mL; IC50 in TZM-bl assay [2]: 0.003 µg/mL; IC80 in TZM-bl assay [2]: 0.012 µg/mL; IC50 in TZM-bl assay [3]: 0.005 µg/mL; IC80 in TZM-bl assay [3]: 0.022 µg/mL; IC50 in TZM-bl assay [4]: 0.007 µg/mL; IC80 in TZM-bl assay [4]: 0.045 µg/mL; IC50 in TZM-bl assay [5]: 14.1 µg/mL; IC80 in TZM-bl assay [5]: > 30 µg/mL; IC50 in TZM-bl assay [6]: > 30 µg/mL; IC80 in TZM-bl assay [6]: > 30 µg/mL; IC50 in TZM-bl assay [7]: > 30 µg/mL; IC80 in TZM-bl assay [7]: > 30 µg/mL; IC50 in TZM-bl assay [8]: 0.005 µg/mL; IC80 in TZM-bl assay [8]: 0.017 µg/mL; IC50 in TZM-bl assay [9]: 0.034 µg/mL; IC80 in TZM-bl assay [9]: 0.257 µg/mL; IC50 in TZM-bl assay [10]: 1.38 µg/mL; IC80 in TZM-bl assay [10]: 7.55 µg/mL; IC50 in TZM-bl assay [11]: 0.002 µg/mL; IC80 in TZM-bl assay [11]: 0.005 µg/mL; IC50 in TZM-bl assay [12]: 0.025 µg/mL; IC80 in TZM-bl assay [12]: 0.082 µg/mL; IC50 in TZM-bl assay [13]: > 30 µg/mL; IC80 in TZM-bl assay [13]: > 30 µg/mL; IC50 in TZM-bl assay [14]: 3.01 µg/mL; IC80 in TZM-bl assay [14]: > 30 µg/mL; IC50 in TZM-bl assay [15]: 0.003 µg/mL; IC80 in TZM-bl assay [15]: 0.01 µg/mL; IC50 in TZM-bl assay [16]: 28.2 µg/mL; IC80 in TZM-bl assay [16]: > 30 µg/mL; IC80 in TZM-bl assay [17]: 0.003 µg/mL; IC50 in TZM-bl assay [18]: > 30 µg/mL; IC80 in TZM-bl assay [18]: > 30 µg/mL; IC50 in TZM-bl assay [19]: 24.4 µg/mL; IC80 in TZM-bl assay [19]: > 30 µg/mL; IC50 in TZM-bl assay [20]: > 30 µg/mL; IC80 in TZM-bl assay [20]: > 30 µg/mL; IC50 in TZM-bl assay [21]: 3.47 µg/mL; IC80 in TZM-bl assay [21]: 10.7 µg/mL; IC50 in TZM-bl assay [22]: > 30 µg/mL; IC80 in TZM-bl assay [22]: > 30 µg/mL; IC50 in TZM-bl assay [23]: 0.002 µg/mL; IC80 in TZM-bl assay [23]: 0.006 µg/mL; IC50 in TZM-bl assay [24]: > 30 µg/mL; IC80 in TZM-bl assay [24]: > 30 µg/mL; IC50 in TZM-bl assay [25]: > 30 µg/mL; IC80 in TZM-bl assay [25]: > 30 µg/mL; IC50 in TZM-bl assay [26]: > 30 µg/mL; IC80 in TZM-bl assay [26]: > 30 µg/mL; IC50 in TZM-bl assay [27]: 0.009 µg/mL; IC80 in TZM-bl assay [27]: 0.057 µg/mL; IC50 in TZM-bl assay [28]: > 30 µg/mL; IC80 in TZM-bl assay [28]: > 30 µg/mL; IC50 in TZM-bl assay [29]: 0.005 µg/mL; IC80 in TZM-bl assay [29]: 0.029 µg/mL; IC50 in TZM-bl assay [30]: > 30 µg/mL; IC80 in TZM-bl assay [30]: > 30 µg/mL; IC50 in TZM-bl assay [31]: > 30 µg/mL; IC80 in TZM-bl assay [31]: > 30 µg/mL; IC50 in TZM-bl assay [32]: 1.44 µg/mL; IC80 in TZM-bl assay [32]: > 30 µg/mL; IC80 in TZM-bl assay [33]: 0.006 µg/mL; IC50 in TZM-bl assay [34]: 0.086 µg/mL; IC80 in TZM-bl assay [34]: 0.328 µg/mL; IC50 in TZM-bl assay [35]: > 30 µg/mL; IC80 in TZM-bl assay [35]: > 30 µg/mL; IC50 in TZM-bl assay [36]: 0.004 µg/mL; IC80 in TZM-bl assay [36]: 0.012 µg/mL; IC50 in TZM-bl assay [37]: > 30 µg/mL; IC80 in TZM-bl assay [37]: > 30 µg/mL; IC50 in TZM-bl assay [38]: > 30 µg/mL; IC80 in TZM-bl assay [38]: > 30 µg/mL; IC50 in TZM-bl assay [39]: > 30 µg/mL; IC80 in TZM-bl assay [39]: > 30 µg/mL; IC50 in TZM-bl assay [40]: > 30 µg/mL; IC80 in TZM-bl assay [40]: > 30 µg/mL
